Eleven molecules from patent US20150344583A1 (Amgen, published 2015) can be followed below.

Changes are numbered by the printed parent chain. In names and notes the source's numbering stands. Read-outs that look alike come from different tables or passages of the source.

In assay [1] the target is T1, human BCMA (huBCMA) on cells (human, UniProt Q02223 1-184).
T1 construct: endogenous on H929, JD38 and other myeloma and B-cell lines and on patient plasma cells; also called native human BCMA
T1 chain: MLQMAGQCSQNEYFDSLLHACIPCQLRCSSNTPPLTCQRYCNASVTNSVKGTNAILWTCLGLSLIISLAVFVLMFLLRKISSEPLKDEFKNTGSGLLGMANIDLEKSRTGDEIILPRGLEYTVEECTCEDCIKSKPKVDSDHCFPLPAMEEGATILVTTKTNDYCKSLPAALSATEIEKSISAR
Nature of the assay: FACS, H929 cells.

The target of assay [2] is T1, human BCMA (huBCMA) on cells. Put plainly: cell-based or functional assay.
The target in assay [3] is T2, clipped form of Sumo-huBCMA, SEQ ID NO:357 (human).
T2 chain: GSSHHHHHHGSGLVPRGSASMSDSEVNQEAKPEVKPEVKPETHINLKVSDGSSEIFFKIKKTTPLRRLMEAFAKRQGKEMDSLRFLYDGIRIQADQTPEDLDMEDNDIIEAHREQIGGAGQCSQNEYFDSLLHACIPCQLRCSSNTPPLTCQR
Put plainly: SEC and LC/MS.

In assay [4] the target is T3, clipped form of Sumo-huBCMA, SEQ ID NO:356 (human).
T3 construct: the species in the SEC peak came from the Sumo fusion, so it may carry the tag
T3 chain: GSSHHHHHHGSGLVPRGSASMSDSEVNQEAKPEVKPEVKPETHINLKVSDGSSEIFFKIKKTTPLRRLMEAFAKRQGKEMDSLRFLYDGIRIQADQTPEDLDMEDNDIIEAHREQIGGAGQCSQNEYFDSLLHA
Nature of the assay: SEC of antibody and Sumo-BCMA mixtures.

The target of assay [5] is T4, clipped form of Sumo-huBCMA, SEQ ID NO:354 (human).
T4 construct: also called peak A
T4 chain: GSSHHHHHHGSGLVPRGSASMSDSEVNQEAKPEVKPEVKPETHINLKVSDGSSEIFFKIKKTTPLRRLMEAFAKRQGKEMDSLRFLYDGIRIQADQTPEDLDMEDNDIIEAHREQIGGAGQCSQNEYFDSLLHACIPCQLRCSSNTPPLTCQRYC
Nature of the assay: SEC of antibody and Sumo-BCMA mixtures.

For assay [6], the target named is T5, clipped form of Sumo-huBCMA, SEQ ID NO:355 (human).
T5 chain: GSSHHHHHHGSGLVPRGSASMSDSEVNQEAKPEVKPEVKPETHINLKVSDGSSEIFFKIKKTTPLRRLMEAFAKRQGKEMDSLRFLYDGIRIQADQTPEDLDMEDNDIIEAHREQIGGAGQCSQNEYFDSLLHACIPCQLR
Put plainly: SEC of antibody and Sumo-BCMA mixtures.

The target in assay [7] is T6, cynomolgus (Macaca fascicularis) BCMA on cells (cynomolgus (Macaca fascicularis), UniProt Q02223 1-184 (human entry)).
T6 construct: also called cyno BCMA; cynomolgus BCMA
Put plainly: summary sentence of Example 16; assay for cynomolgus BCMA not given there.

The target of assay [8] is T7, TACI on transiently transfected cells (human, UniProt O14836 1-293).
T7 construct: whole, on cells; also called huTACI
T7 sequence (looked up): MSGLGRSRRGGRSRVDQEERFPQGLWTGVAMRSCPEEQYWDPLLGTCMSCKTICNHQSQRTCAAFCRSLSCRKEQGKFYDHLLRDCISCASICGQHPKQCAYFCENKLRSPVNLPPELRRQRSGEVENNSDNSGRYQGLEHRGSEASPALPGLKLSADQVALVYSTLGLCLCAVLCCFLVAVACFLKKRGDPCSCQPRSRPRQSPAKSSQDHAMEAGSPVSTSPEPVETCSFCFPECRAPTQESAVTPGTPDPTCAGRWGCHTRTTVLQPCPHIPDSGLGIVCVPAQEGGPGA
Nature of the assay: FACS, hu TACI.

Assay [9] deals with T6, cynomolgus (Macaca fascicularis) BCMA …. Put plainly: FACS, Cyno BCMA. Background: Flow cytometry measures light scatter and fluorescence of single cells or particles in a stream.
The target of assay [10] is T1, human BCMA (huBCMA) on cells. Put plainly: FACS, hu BCMA.
In assay [11] the target is T6, cynomolgus (Macaca fascicularis) BCMA …. Put plainly: CynoBCMA O/N FACS.
The target of assay [12] is T1, human BCMA (huBCMA) on cells. Put plainly: cell-based or functional assay.
Assay [13] has the same target. Nature of the assay: FACS on H929 cells (native BCMA, relative binding, indirect).
The target of assay [14] is T8, rrat BCMA fusion protein (GS::6xHis::Sumo::ratBCMA(aa 2-49)::GGS::G3::Avi) (rat).
T8 chain: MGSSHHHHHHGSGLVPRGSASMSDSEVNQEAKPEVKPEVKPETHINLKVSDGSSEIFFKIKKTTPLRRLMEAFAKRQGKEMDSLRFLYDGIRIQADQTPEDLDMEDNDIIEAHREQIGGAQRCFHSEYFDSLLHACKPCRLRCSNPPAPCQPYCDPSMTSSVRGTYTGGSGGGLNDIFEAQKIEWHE
Put plainly: Biacore, antibody captured, rrat BCMA analyte. On the technique in general: In SPR one partner is held on a chip, and binding of the other changes the refractive index at the surface.

In assay [15] the target is T9, rhuBCMA fusion protein (6xHis::Sumo::huBCMA(aa 5-51)::GGS::G3::Avi) (human).
T9 construct: the preparation also held C-terminally clipped forms; also called Sumo-BCMA; SumoBCMA
T9 chain: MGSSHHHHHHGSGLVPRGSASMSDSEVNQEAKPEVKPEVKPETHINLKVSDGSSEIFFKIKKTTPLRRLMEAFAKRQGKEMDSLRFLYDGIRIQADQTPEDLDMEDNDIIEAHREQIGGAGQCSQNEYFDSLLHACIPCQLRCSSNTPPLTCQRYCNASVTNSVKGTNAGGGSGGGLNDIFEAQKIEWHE
Put plainly: Biacore, antibody captured, rhu BCMA analyte.

Assay [16] deals with T8, rrat BCMA fusion protein …. Nature of the assay: Biacore, antibody captured, rrat BCMA analyte.
Assay [17] deals with T9, rhuBCMA fusion protein …. Nature of the assay: Biacore, antibody captured, rhu BCMA analyte.

T6 sequence (Q02223 other isoform, or with tags, fused parts or gaps): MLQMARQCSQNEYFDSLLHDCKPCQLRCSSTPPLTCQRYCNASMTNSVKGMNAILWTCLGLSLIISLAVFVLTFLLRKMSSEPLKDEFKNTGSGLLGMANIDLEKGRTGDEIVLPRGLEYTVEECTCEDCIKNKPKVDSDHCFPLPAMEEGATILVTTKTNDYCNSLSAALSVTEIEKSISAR

B1: 2A1-S108R (antibody, V domains shown)
VH: EVQLVESGGGLVKPGRSLRLSCTASGFTFGDYALSWFRQAPGKGLEWVGVSRSKAYGGTTDYAASVKGRFTISRDDSKSFAYLQMNSLKTEDTAVYYCCRSGYSSGWTPFDYWGQGTLVTVSS
VL: not shown
One may read the EC50 (read off the curve) as the concentration giving half of the maximal effect. A higher EC50 (read off the curve) goes with lower potency in that assay. As to B1, the “EC50 (read off the curve)” value in assay [1] was approximately 0.2 µg/mL. In addition, in [2], the “ADCC EC50” value amounted to 0.043 µg/mL.

B2: Ab-1 (2A1CV5) (antibody, human IgG1, lambda, V domains shown)
VH: B1 VH with R16G, T23A, F80T, C99A, R100S
VL: not shown
In the case of B2, the binding result in [3], in assay [4], in assay [5], in [6] and in assay [7] was “binds” in each case.

B3: 30E1 (antibody, V domains shown)
VH: EVQLLESGGGLVQPGGSLRLSCAASGFTFSSHAMSWVRQAPGKGLEWVSAISGGDGNTYYADSVKGRFAISRDNSKNVVYLQMNSLRAEDTAVYFCAKDLVGVVAGYYYYFGMDVWGQGTTVTVSS
VL: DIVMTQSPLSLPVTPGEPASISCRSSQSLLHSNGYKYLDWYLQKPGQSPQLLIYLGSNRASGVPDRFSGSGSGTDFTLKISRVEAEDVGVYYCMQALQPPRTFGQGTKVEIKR
notes: IgG2 or IgG4, purified from hybridoma supernatant; also called 30E1.1; Ab-9
On to B3, for which the MFI in assay [8] turned out to be 555 MFI; in [9] it was 78500 MFI; in assay [10] it was 109000 MFI; in assay [11], 130 MFI.

B4: 32B5-MCC-DM1 (antibody, V domains shown)
VH: EVQLLESGGALVQPGGSLRLSCAASGFTFSSYAMNWVRQAPGKGLEWVSAISVGGDTYYADSVKGRFTISRDNSKNTLYLHVNSLSAEDSAVYYCAKDQVTLVRGVWYYYGLDVWGQGTTVTVSS
VL: VIVLIQSPLSLPVTPGEPASISCRSSQSLLHSNGNNYLDWYLQKPGQSPHLLISLGSNRTSGVPDRFSGSGSGTDFTLKISRVEAEDVGFYYCMQALQPPRRFGQGTKLEIKR
notes: MCC-DM1 conjugate of '32B5'
The term EC50 denotes the concentration at which the effect is half-maximal. Higher therefore signals lower potency in that assay. Take B4: the “IC50, H929 cell growth (CellTiter-Glo, 96 h)” value in assay [12] was 0.506 nM. In assay [13], the response was half-maximal at 7 nM (EC50).

B5: Ab-2 (29C12_mut) (antibody, human IgG1, kappa, V domains shown)
VH: B4 VH with A10G, H81Q, V82M, S86R, S90T, L102M
VL: B4 VL with V1D, L4M, I5T, N58Q, F90V
notes: Human IgG1; also called 29C12 CV2; 29C12cv2
The Kd is the equilibrium constant for the complex coming apart. Consider B5, for which the Kd was 2.35 nM in assay [14] and 1.11 nM in [15].

B6: 35D2 (antibody, V domains shown)
VH: B4 VH with D56G, S86R, S90T, L102M
VL: B4 VL
notes: IgG2 or IgG4, purified from hybridoma supernatant; also called 35D2.1; Ab-15
On to B6, for which the MFI was 506 MFI in [8], 198000 MFI in assay [9], 129000 MFI in [10] and 152 MFI in [11].

B7: 32B5 (antibody, V domains shown)
VH: B4 VH
VL: B4 VL
notes: IgG2 or IgG4 as purified from hybridoma (32B5.1); later converted to human IgG1; an engineered version may be meant there; also called 32B5.1; Ab-10
As for B7, the MFI in assay [8] was found to be 274 MFI; in [9] it was 257000 MFI; in assay [10] it was 137000 MFI; in [11], 108 MFI.

B8: Ab-3 (32B5_mut) (antibody, human IgG1, kappa, V domains shown)
VH: B4 VH with A10G, H81Q, S86R
VL: B4 VL with V1D, I5T, N58Q, F90V
notes: Human IgG1; also called 32B5 CV2; 32B5cv2
Consider B8, for which the Kd is 2.07 nM in assay [16] and 0.75 nM in [17].

B9: 37B2 (antibody, V domains shown)
VH: B4 VH with S31N
VL: B4 VL
notes: IgG2 or IgG4, purified from hybridoma supernatant; also called 37B2.1; Ab-16
Regarding B9, the MFI was 1040 MFI in assay [8], 136000 MFI in assay [9], 83700 MFI in [10] and 104 MFI in assay [11].

B10: 29C12 (antibody, V domains shown)
VH: B4 VH with H81Q, V82M, S86R, S90T, L102M
VL: B4 VL with V1D, L4M, F90V
notes: IgG2 or IgG4 as purified from hybridoma (29C12.1); later converted to human IgG1; an engineered version may be meant there; also called 29C12.1; Ab-8
In the case of B10, the MFI came to 256 MFI in [8], 97300 MFI in assay [9], 82600 MFI in [10] and 110 MFI in [11].

B11: 32H3 (antibody, V domains shown)
VH: EVQLLESGGGLVQPGGSLRLSCAASGFTFSSYAMSWVRQAPGKGLKWVSAISGGAGNTYYADSVKGRFTISRDISKSTVYLQMTSLRAEDTAIYYCAKDGVGTTGGYFYYHGMDVWGQGTTVTVSS
VL: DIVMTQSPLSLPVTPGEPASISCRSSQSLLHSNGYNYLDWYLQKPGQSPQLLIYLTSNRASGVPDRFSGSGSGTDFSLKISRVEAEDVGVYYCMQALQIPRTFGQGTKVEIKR
notes: IgG2 or IgG4, purified from hybridoma supernatant; also called 32H3.1; Ab-12
As for B11, the MFI turned out to be 1360 MFI in [8], 51200 MFI in assay [9], 97700 MFI in assay [10] and 122 MFI in assay [11].
